Measurements from US20140363428A1 (Chugai, published 2014).
Substitutions are numbered along the chain they refer to. Names may count otherwise.

B1: Fv-4-F1392 (antibody, human IgG1, kappa)
heavy: QVQLQESGPGLVKPSETLSLTCAVSGHSISHDHAWSWVRQPPGEGLEWIGFISYSGITNYNPSLQGRVTISRDNSKNTLYLQMNSLRAEDTAVYYCARSLARTTAMDYWGEGTLVTVSSASTKGPSVFPLAPSSKSTSGGTAALGCLVKDYFPEPVTVSWNSGALTSGVHTFPAVLQSSGLYSLSSVVTVPSSSLGTQTYICNVNHKPSNTKVDKKVEPKSCDKTHTCPPCPAPELLGGPSVFLFPPKPKDTLMISRTPEVTCVVVDVSHEDPEVKFNWYVDGVEVHNAKTKPREEQYNSTYRVVSVLTVLHQDWLNGKEYKCKVSNKALPAPIEKTISKAKGQPREPQVYTLPPSRDELTKNQVSLTCLVKGFYPSDIAVEWESNGQPENNYKTTPPVLDSDGSFFLYSKLTVDKSRWQQGNVFSCSVLHEALHSHKTQKSLSLSP
light: DIQMTQSPSSLSASVGDSVTITCQASTDISSHLNWYQQKPGKAPELLIYYGSHLLSGVPSRFSGSGSGTDFTFTISSLEAEDAATYYCGQGNRLPYTFGQGTKVEIERTVAAPSVFIFPPSDEQLKSGTASVVCLLNNFYPREAKVQWKVDNALQSGNSQESVTEQDSKDSTYSLSSTLTLSKADYEKHKVYACEVTHQGLSSPVTKSFNRGEC
B2: Fv-4-F1382 (antibody, human IgG1, kappa)
heavy: B1 heavy with S428K, K438Y
light: B1 light
B3: Fv-4-F1383 (antibody, human IgG1, kappa)
heavy: B1 heavy with S428R, K438Y
light: B1 light
B4: Fv-4-F1380 (antibody, human IgG1, kappa)
heavy: B1 heavy with S428D, K438Y
light: B1 light
B5: Fv-4-F1390 (antibody, human IgG1, kappa)
heavy: B1 heavy with K438H
light: B1 light
B6: Fv-4-F1388 (antibody, human IgG1, kappa)
heavy: B1 heavy with K438F
light: B1 light
B7: Fv-4-F1386 (antibody, human IgG1, kappa)
heavy: B1 heavy with S428Y, K438Y
light: B1 light
B8: Fv-4-F1384 (antibody, human IgG1, kappa)
heavy: B1 heavy with S428A, K438Y
light: B1 light
B9: Fv-4-F1389 (antibody, human IgG1, kappa)
heavy: B1 heavy with K438T
light: B1 light
notes: M428L/N434S/Y436T (EU)
B10: Fv-4-F1391 (antibody, human IgG1, kappa)
heavy: B1 heavy with K438N
light: B1 light
B11: Fv-4-F1385 (antibody, human IgG1, kappa)
heavy: B1 heavy with S428Q, K438Y
light: B1 light
B12: Fv-4-F1381 (antibody, human IgG1, kappa)
heavy: B1 heavy with S428E, K438Y
light: B1 light
B13: Fv-4-F11 (antibody, human IgG1, kappa)
heavy: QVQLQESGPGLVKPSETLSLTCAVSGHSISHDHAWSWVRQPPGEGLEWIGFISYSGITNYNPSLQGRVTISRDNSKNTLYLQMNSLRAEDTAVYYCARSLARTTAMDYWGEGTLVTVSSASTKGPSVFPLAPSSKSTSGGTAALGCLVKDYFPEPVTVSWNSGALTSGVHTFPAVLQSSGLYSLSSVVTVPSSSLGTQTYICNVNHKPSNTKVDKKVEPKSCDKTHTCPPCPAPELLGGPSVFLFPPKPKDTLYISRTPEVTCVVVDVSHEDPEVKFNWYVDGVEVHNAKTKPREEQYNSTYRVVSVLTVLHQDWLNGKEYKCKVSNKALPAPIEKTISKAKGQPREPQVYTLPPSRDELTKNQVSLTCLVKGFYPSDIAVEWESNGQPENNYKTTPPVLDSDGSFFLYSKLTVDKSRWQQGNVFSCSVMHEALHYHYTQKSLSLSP
light: B1 light
notes: M252Y/N434Y (EU)
B14: Fv-4-F1097 (antibody, human IgG1, kappa)
heavy: B1 heavy with M254Y, G387N, P389S, L430M, S436Y, K438Y
light: B1 light
B15: Fv-4-F1080 (antibody, human IgG1, kappa)
heavy: B1 heavy with M254Y, S426N, L430M, S436Y, K438Y
light: B1 light
notes: additional N-glycosylation found (++)
B16: Fv-4-F1077 (antibody, human IgG1, kappa)
heavy: B1 heavy with K250N, M254Y, L430M, S436Y, K438Y
light: B1 light
notes: as for B15
B17: Fv-4-F1081 (antibody, human IgG1, kappa)
heavy: B1 heavy with M254Y, L430M, S436Y, K438N, Q440T
light: B1 light
notes: as for B15
B18: Fv-4-F1082 (antibody, human IgG1, kappa)
heavy: B1 heavy with M254Y, L430M, S436Y, K438Y, Q440N
light: B1 light
notes: additional N-glycosylation found (+)
B19: Fv-4-F1083 (antibody)
heavy: B1 heavy with M254Y, L430M, S436Y, K438Y, S442N
light: B1 light
B20: Fv-4-F1096 (antibody, human IgG1, kappa)
heavy: B1 heavy with M254Y, Q388T, L430M, S436Y, K438Y
light: B1 light
B21: Fv-4-F1079 (antibody, human IgG1, kappa)
heavy: B1 heavy with M254Y, E384N, N386S, L430M, S436Y, K438Y
light: B1 light
B22: Fv-4-F1095 (antibody, human IgG1, kappa)
heavy: B1 heavy with M254Y, S385N, G387S, L430M, S436Y, K438Y
light: B1 light
B23: Fv-4-F1094 (antibody)
heavy: B1 heavy with M254Y, L430M, S436Y, K438Y, S444N
light: B1 light
B24: Fv-4-F1078 (antibody, human IgG1, kappa)
heavy: B1 heavy with M254Y, E382N, E384S, L430M, S436Y, K438Y
light: B1 light
B25: Fv-4-F1323 (antibody)
heavy: B1 heavy with L237R, S241K, M254Y, S256T, L430M, H435D, S436Y, K438V, Q440K, S442E
light: B1 light
B26: Fv-4-F1268 (antibody)
heavy: B1 heavy with L237R, S241K, M254Y, L430M, H435D, S436Y, K438V, Q440R, S442E
light: B1 light
B27: Fv-4-F1269 (antibody)
heavy: B1 heavy with L237R, S241K, M254Y, L430M, H435D, S436Y, K438V, Q440K, S442D
light: B1 light
B28: Fv-4-F1245 (antibody)
heavy: B1 heavy with L237R, S241K, M254Y, S256T, T258E, L430M, S436Y, K438V, Q440R, S442E
light: B1 light
notes: L235R/S239K/M252Y/S254T/T256E/N434Y/Y436V/Q438R/S440E (EU)
B29: Fv-4-F939 (antibody, human IgG1, kappa)
heavy: B1 heavy with L237R, S241K, M254Y, L430M, S436Y, K438V
light: B1 light
B30: Fv-4-F1243 (antibody)
heavy: B1 heavy with L237R, S241K, M254Y, S256T, L430M, S436Y, K438V, Q440R, S442E
light: B1 light
notes: L235R/S239K/M252Y/S254T/N434Y/Y436V/Q438R/S440E (EU)
B31: Fv-4-F1321 (antibody)
heavy: B1 heavy with L237R, S241K, M254Y, S256T, L430M, S436Y, K438V, Q440K, S442E
light: B1 light
B32: Fv-4-F1291 (antibody, human IgG1, kappa)
heavy: B1 heavy with L237R, S241K, M254Y, L430M, H435D, S436Y, K438V
light: B1 light

Molecular target: T1, soluble human FcRn (human, UniProt P55899 24-297; P61769 21-119)
T1 construct: Heterodimer of alpha chain and beta2-microglobulin; also called hFcRn
Assay: SPR (Biacore), pH 6.0

Row | Kd | Binder
1 | 270 nM | B1
2 | 130 nM | B2
3 | 160 nM | B3
4 | 73 nM | B4
5 | 400 nM | B5
6 | 80 nM | B6
7 | 160 nM | B7
8 | 86 nM | B8
9 | 68 nM | B9
10 | 420 nM | B10
11 | 77 nM | B11
12 | 86 nM | B12

Molecular target: T1, soluble human FcRn
Assay: SPR (Biacore), pH 7.0

Row | Kd | Binder
13 | 330 nM | B13
14 | 280 nM | B14
15 | 320 nM | B15
16 | 2000 nM | B16
17 | 620 nM | B17
18 | 280 nM | B18
19 | 350 nM | B19
20 | 270 nM | B20
21 | 340 nM | B21
22 | 290 nM | B22
23 | 260 nM | B23
24 | 470 nM | B24

Molecular target: T1, soluble human FcRn
Assay: SPR (Biacore), pH 7.0
Remark: another data set of the same source

Row | Kd | Binder
25 | 150 nM | B25
26 | 200 nM | B26
27 | 170 nM | B27
28 | 82 nM | B28
29 | 150 nM | B29
30 | 130 nM | B30
31 | 100 nM | B31
32 | 150 nM | B32
